The values that follow come from patent publication CN114835808A (dated 2022).

In this assay the target is T1, 重组cTnI抗原 (UniProt P19429 1-210, limits assumed).
T1 construct: Both are treated here as the same coating of the same experiment
The assay can be described thus: indirect ELISA, recombinant cTnI coated, enzyme-labelled secondary antibody. (ELISA stands for enzyme-linked immunosorbent assay.)

T1 sequence (P19429 whole entry): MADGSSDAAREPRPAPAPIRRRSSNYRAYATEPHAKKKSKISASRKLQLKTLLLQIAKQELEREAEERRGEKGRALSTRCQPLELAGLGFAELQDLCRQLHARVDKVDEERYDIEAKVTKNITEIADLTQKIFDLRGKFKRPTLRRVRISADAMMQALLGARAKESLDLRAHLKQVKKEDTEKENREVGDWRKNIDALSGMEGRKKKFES

B1: cTnI抗体突变4 (antibody, V domains shown)
VH: EVQLVESGGDLVTPGGSLKLSCTASGFTFSNYAMSWVRQTPEKRLEWVATISSGGTYTFYPDSVKGRFTISRDNAKNTLYLQMSSLRSEDTAIYYCTAAGAFDGEKALDYWGQGTSVTVSS
VL: DIQMNQSTSSLSASLGDRVTISCRASQDISSYLNWYQQRADGTIKLLIYFTSRLHSGVPSRFSGSGSGTDYSLTISNLEQEDIATYFCQQGNTVAATFGGGTRLEIK
notes: Mutant of a mouse anti-cTnI monoclonal antibody, made recombinantly by transient expression and purified on SPA; also called 突变抗体4
For the molecule B1, the binding result is “no binding (tested: 检测值小于0.05基本可判定无活性 (阴性对照0.047左右))”.
